Drawing on the supplement of paper PMC12042874, this text covers amyloid nucleation score for 137 substances.

Data set [1] is described as follows: amyloid nucleation score (Sup35N fusion, yeast selection) (log enrichment); library NNK1; higher = more nucleation; inactive = no reads after selection. In outline:
(§1)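 The nucleation score is a DiMSum log enrichment of output over input reads, centred on the mode score of non-aggregating sequences. Sequences under 100 input reads were excluded, and reads came from Illumina sequencing of plasmid inserts. Psi-negative yeast expressing Sup35N fused to peptides of 20 random codons were induced with 100 μM copper sulfate for 24 hours and grown 7 days at 30°C on medium lacking adenine and uracil. Random libraries had three technical output replicates.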

Data set [2] is described as follows: amyloid nucleation score (Sup35N fusion, yeast selection) (log enrichment); library NNK2; higher = more nucleation; inactive = no reads after selection. In outline: as §1
The nature of data set [3]: amyloid nucleation score (Sup35N fusion, yeast selection) (log enrichment); library NNK3; higher = more nucleation; inactive = no reads after selection. In outline: as §1

± gives the uncertainty stated by the source.

Consider GLFYW, for which, in data set [1], the amyloid nucleation score turned out to be 1.06 ± 0.72.
Still for that read-out and setting: the result for GLWMWEEVILISTLKLFVLV reads 0.139 ± 0.6.
In turn, VHWRASCNMQLRADQRICIL gave an amyloid nucleation score in data set [1] of -0.84 ± 0.49.
In data set [1], NVCPFWGYKDAW gave an amyloid nucleation score of 0.435 ± 0.22.
The substance ASNTANIPYGII came in with an amyloid nucleation score in data set [1] of 0.489 ± 0.32.
Same read-out and setting: the result for LQIYCAPGFV reads 0.38 ± 1.2; that for PQLRLLPGVLGNPGNGHSRI, 4.59 ± 0.098; that for ACKCAFSGFSYVAFGPVMGG, -1.61 ± 1.9.
For the substance NLTRITF, the amyloid nucleation score in data set [1] is -0.762 ± 1.1.
In turn, SQAAGSVY came in with an amyloid nucleation score in data set [1] of 0.026 ± 0.25.
On the same count and under the same terms, the result for IWTNTLNFTARFANVLAGTG reads -0.705 ± 1.2.
Consider IGYLDYLCCGISLFFQETEA, for which the amyloid nucleation score in data set [1] was found to be 0.427 ± 0.48.
The same measure, in the same setting: the result for TEFSNAPPHTSAMVAYVLSY reads -1.52 ± 1.7; that for GVLRSSTSTVRGSCAGFHRL, 0.29 ± 0.43.
The same measure, in the same setting: the result for NEDLNS reads 0.194 ± 0.31; that for FLPRSYCVFSWFHLSVSTAR, “inactive”; that for YIIYWGAQLSILHENSPSFG, 0.354 ± 0.33.
The substance RYCVHIWRCDSLNHHN had an amyloid nucleation score in data set [1] of 0.349 ± 0.41.
In data set [1], LSNRVLEGFNSSWYISIRGF had an amyloid nucleation score of -0.434 ± 1.7.
On the same count and under the same terms, the result for RGGNIVKHRLFGPDGGAYWK reads -0.591 ± 0.79.
Still for that read-out and setting: the result for DTENPSYMNVNCYWRLLFSR reads 0.669 ± 0.4; that for RRVLRTSKNSSLMDFYATIE, 0.299 ± 0.79; that for FLQNMSVILTIMNDIKIMED, 6.161 ± 0.047.
RKFRNKAIISIIDVYRPAAI yielded an amyloid nucleation score in data set [1] of 1.01 ± 0.62.
The same measure, in the same setting: then VTFFHFSQGR, with 4.79 ± 0.057; and RHRVQTTPSSMSFV, with -0.388 ± 0.96; and ADNRVQRYTDPFLGSVSMYK, with 0.563 ± 0.49.
On the same count and under the same terms, then ACANLKSGIFKRFFTSCSGT, with -0.959 ± 0.65; and TVFSSWLTQGSMYV, with 1.48 ± 0.44.
Still for that read-out and setting: then SKLMRVVCVVISVAYTWNEE, with 0.188 ± 0.32; and LFRSRRLVCDMKFHWTFLYR, with -0.853 ± 0.5; and IHLGCCMLFRRLGECRLVV, with -0.409 ± 0.29.
In data set [1], DGMVALYVGYATSLVTWAK showed an amyloid nucleation score of 0.65 ± 0.56.
STVRSAPFSWLPGKYGWSKC registered an amyloid nucleation score in data set [1] of -0.214 ± 0.98.
Consider VNVCYTMMEFVAGVYSGLLR, for which the amyloid nucleation score in data set [1] was 0.288 ± 0.29.
On the same count and under the same terms, the result for VIFYSLYSSVWFDSIYEGLT reads -0.566 ± 1.5; that for WIRHSNNICMM, 1.26 ± 0.18; that for FRNGDGVQPWLTWHAV, 1.28 ± 0.33.
In turn, SINLCGLWKVYYILAFMW had an amyloid nucleation score in data set [1] of -2.26 ± 2.4.
Still for that read-out and setting: the result for FSSRWSI reads -0.138 ± 0.6; that for VVRDRNYPFYLIIGRSVVLG, 5.16 ± 0.061; that for NPAGF, 0.558 ± 1.1.
For the substance TAQMKDFSLRRNVGFVGSRW, in data set [1], the amyloid nucleation score entry is “inactive”.
The same measure, in the same setting: then SVLKSITPNGPLLFSYVCSI, with -1.56 ± 0.58; and MLGDAIMGM, with 1.09 ± 0.57.
Substance SHSGFTCTCWCMALLYGVAS came in with an amyloid nucleation score in data set [1] of 1.22 ± 0.63.
The same measure, in the same setting: the result for VMGFHT reads -0.402 ± 1.9; that for DKVMGRTQLTTCQYATGRCR, 0.406 ± 0.3; that for DDFAMLE, “inactive”.
Consider VCGVRMVLALSRFVLSAINN, for which, in data set [1], the amyloid nucleation score was 0.177 ± 0.65.
Consider KTFVPWISCATSIEVFYVAS, for which the amyloid nucleation score in data set [1] is 1 ± 0.54.
In data set [1], QFLALVCFCIPRLVRLAGYE returned an amyloid nucleation score of -1.35 ± 1.1.
Substance KGLGRF displayed an amyloid nucleation score in data set [1] of -0.788 ± 0.74.
Still for that read-out and setting: then NVILFNYLREILRLCYMACM, with 0.758 ± 0.81; and CLFKGLCSGWLREYALPYFC, with -1.05 ± 0.97; and LVHSFMW, with 0.876 ± 0.51.
The same measure, in the same setting: the result for MYYLRHF reads “inactive”.
On the same count and under the same terms, then VYRIWSSSGNYKEVYAHRAL, with 0.947 ± 0.93; and VNGARRQFRRLMPCLEAWVS, with -0.372 ± 0.32; and YNCWSSLNFYNPIFLRTLLG, with 3.46 ± 0.21.
As for GSPMFLRIYLETYLPTYELS, the amyloid nucleation score in data set [1] amounted to 0.739 ± 0.42.
Consider LQKIMQKISPIFRNRIYVRR, for which, in data set [1], the amyloid nucleation score was -0.327 ± 0.48.
The same measure, in the same setting: the result for CVGDFVME reads -0.318 ± 0.98; that for ESLRDRARWGNCMQILICSL, -0.055 ± 0.55; that for LGWRSTFCMKYTSQSLSLPR, -0.221 ± 0.58.
Turning to WESSGFQMICRSFSFNMFSS, the amyloid nucleation score in data set [1] was -0.458 ± 0.52.
In data set [1], CHQAEPGIGMRSCTLVGEGV came in with an amyloid nucleation score of 1.36 ± 0.61.
In data set [1], ISRGDVGVKESSGCNCVLPH showed an amyloid nucleation score of -0.587 ± 1.3.
On the same count and under the same terms, the result for LIGIVKGTTVSRMGNTVIDR reads “inactive”; that for LSSPLLS, 0.66 ± 0.44.
The same measure, in the same setting: then DTAFMNMMLWARNYCWFSVQ, with “inactive”; and YSIDTGS, with “inactive”.
With LTLLR, the amyloid nucleation score in data set [2] was -0.122 ± 0.42; in data set [3] it was “inactive”.
Take TVQDMFIFIFYVYNSFGRYM: the amyloid nucleation score in data set [2] turned out to be 3.35 ± 0.052.
The same measure, in the same setting: then NGADWATRRIWVSVRAVMGR, with 0.513 ± 0.32.
Turning to ILRECFIFSHRKTHLLKFWL, the amyloid nucleation score in data set [2] is -0.622 ± 1.1.
On the same count and under the same terms, the result for MRKMRTMNAQWSWIIVCSFW reads 0.151 ± 0.63; that for TFCVNFARRVSLRSVLATIG, 0.034 ± 0.43.
Same read-out and setting: then GYINEYCCHLRVNGLLRAPG, with -0.315 ± 0.5.
On the same count and under the same terms, then NELEHVFLMRYKC, with “inactive”; and YLEWIL, with -2.06 ± 0.54.
SFLWCPGG had an amyloid nucleation score in data set [2] of 0.221 ± 0.33.
Regarding NLRVAALAEGPRVNYRVSGW, the amyloid nucleation score in data set [2] is 0.69 ± 0.43.
Consider YSYKFAAVSMIWVYPCEHTS, for which the amyloid nucleation score in data set [2] stood at 1.71 ± 0.18.
Same read-out and setting: the result for PLLGLRG reads 0.102 ± 1.1.
Still for that read-out and setting: then RNLDNHRTFFSFRIGLFMWS, with 6.13 ± 0.077.
Substance ACETCPAAEIYLICGTWKSR registered an amyloid nucleation score in data set [2] of 9.36 ± 0.034.
In the case of SSLTPHWRVRKYDWYSIGSG, the amyloid nucleation score in data set [2] was -0.8 ± 0.41.
The substance RATKGAPN had an amyloid nucleation score in data set [2] of 0.858 ± 0.28.
Same read-out and setting: the result for CIRRESCIRICGGDCVCHRA reads 2.97 ± 0.091; that for NEDTAGTRRLHPRYGVADWS, 0.88 ± 0.18; that for AKLRHWDCHFTR, 0.405 ± 0.2.
The same measure, in the same setting: the result for SVEFVLMRLGQLT reads 4.18 ± 0.058; that for YYLVYKAGKMLIEYHKSYNW, -1.1 ± 1; that for SMTNNMGLLE, -0.979 ± 0.76.
On the same count and under the same terms, the result for FEDFLCFSGMRFVFELCADT reads -0.917 ± 0.78.
YTQAYILVLIVLLLLSVMVI showed an amyloid nucleation score in data set [2] of 5.638 ± 0.054.
The same measure, in the same setting: then RELKCQCLERVLLRVRQCAM, with 6.821 ± 0.056; and AWETFELVLY, with -0.145 ± 0.76; and NPETQYASLGRS, with -0.306 ± 0.38.
As for IDILWVRVNAFLSVVEIRSN, the amyloid nucleation score in data set [2] was determined as 0.949 ± 0.15.
Take NFSSWSER: the amyloid nucleation score in data set [2] was -0.885 ± 0.54.
On the same count and under the same terms, the result for LMAKQFIPGTYTLRGSSFHG reads -0.677 ± 0.3.
As for IGLYGNANPMTGVHSHLLCG, the amyloid nucleation score in data set [2] is -0.088 ± 0.54.
Still for that read-out and setting: the result for VVKLMAMFGRTNVLTLERHL reads 0.655 ± 0.31.
The same measure, in the same setting: then STKVR, with 1.3 ± 0.32; and SLDETSPLVWEWEICSDLYN, with 0.68 ± 0.56; and ADRSVGGFNCVSFLYAVN, with 4.02 ± 0.076.
Turning to NVRFLMMI, in data set [2], the amyloid nucleation score entry was “inactive”.
As to RHFMLSSTCPEGMNENGTFS, in data set [2], the amyloid nucleation score was 0.811 ± 0.51.
The same measure, in the same setting: then HNGVIVIDCWRRKFHPNVIS, with -0.922 ± 1; and TVIFVCHFTKVDCVSNTQSY, with 3.42 ± 0.1; and QVVFQGLFFYVGCSGHICRY, with 7.67 ± 0.062.
On the same count and under the same terms, then SSMQPHLVSSVL, with 3.7 ± 0.07; and HNYMLVILHRDSPNLNLGHS, with 3.94 ± 0.12; and RCNIWCHFPVCRAINIMLQA, with -0.147 ± 1.1.
Turning to RCFMGVA, the amyloid nucleation score in data set [2] is 0.276 ± 0.65.
Take TRGPR: in data set [2], the amyloid nucleation score is 0.76 ± 0.46.
Regarding MEEGRS, the amyloid nucleation score in data set [2] came to 0.525 ± 0.28.
Substance LNHPTGCEYRWEARPNLCEK came in with an amyloid nucleation score in data set [2] of -0.553 ± 0.63.
Substance GWSYNLSETLKQSVESVLTS had an amyloid nucleation score in data set [2] of 1.42 ± 0.44.
Consider LSPVSWYLRITYNAYSMVGQ, for which the amyloid nucleation score in data set [2] amounted to 1.91 ± 0.11.
Same read-out and setting: the result for YWANMVG reads -0.328 ± 0.48; that for IIDNYNYMF, -0.963 ± 1.1.
SISALLFIPAHRTIMAG registered an amyloid nucleation score in data set [2] of -1.69 ± 1.1.
Still for that read-out and setting: the result for RGGRSVRTVNWPSYMMSVPD reads -0.076 ± 0.3; that for PGLTVYFGTVRMKVHCWSYR, 9.779 ± 0.029; that for IHDELSRCRC, -0.611 ± 0.63.
Same read-out and setting: then CCDVRS, with 0.558 ± 0.51; and VEFILKVGYAFTATCPCGFW, with -0.711 ± 0.79.
Still for that read-out and setting: the result for VVTLRCSIVKEDTNGLLPGV reads 2.79 ± 0.09; that for IRCCVQFIQLSQGNNVWVRS, 6.07 ± 0.081; that for TYPNKADPLFRS, 0.008 ± 0.46.
GISLGDNIRFYLDCTAAPGA: the amyloid nucleation score in data set [2] was -0.648 ± 0.42.
Take GTTCDIEDVPCMLVVDTLLV: the amyloid nucleation score in data set [2] came out at 1.42 ± 0.16.
The same measure, in the same setting: then FSWFDWKGYVLSWIRSYSSE, with “inactive”; and LGPLVYFLFVNIPNQGFFLC, with 1.56 ± 0.16.
